Target: HtpGMtb_C (C-terminal domain of HtpGMtb, wild type) (M. tuberculosis H37Rv)
Assay: SEC-MALS

HtpGMtb_C (C-terminal domain of HtpGMtb, wild type) (domain or fragment), sequence (A1KKZ1 417-645 limits assumed): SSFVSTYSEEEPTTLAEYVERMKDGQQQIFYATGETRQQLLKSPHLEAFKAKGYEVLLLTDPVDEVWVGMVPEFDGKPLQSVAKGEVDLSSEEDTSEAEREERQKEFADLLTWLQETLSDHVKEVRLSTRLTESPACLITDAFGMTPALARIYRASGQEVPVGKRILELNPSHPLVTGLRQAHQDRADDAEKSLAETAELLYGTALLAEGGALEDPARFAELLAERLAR

HtpGMtb_C (C-terminal domain of HtpGMtb, wild type) (domain or fragment)
stoichiometry N: 2

— publication PMC9403545, “Structure based design of effective HtpG-derived vaccine antigens against M. tuberculosis” (Frontiers in Molecular Biosciences, 2022)
